Measurements: article PMC1713233, “Implantation Serine Proteinases heterodimerize and are critical in hatching and implantation” (BMC Developmental Biology, 2006)

Target: T1, ISP1-ISP2 enzyme complex (Mus musculus, UniProt Q924N9+Q99MS4)
T1 construct: The native ISP enzyme complex was purified from mouse uterine tissue homogenates; from tissue; host or cells: uterus of pregnant CD1 mice (4.5-6.5 dpc)
Experiment: Inhibition of proteolytic activity of ISP enzyme complex, chromogenic assay with BAPNA as substrate
Format: biochemical
Experimental: Many general serine proteinase inhibitors were tested in order to identify suitable ISP inhibitors when BAPNA was used as a substrate. These included Benzamidine hydrochloride, 4-(Amidino-Phenyl)-Methane-Sulfonyl Fluoride (APMSF), L-1 Chloro-3- [4-tosyl-amido]-7-amino-2-heptanone. HCl (TLCK), Trypsin Soybean Inhibitor (TSI), Bis (5-amidino-2-benzimadozolyl) methane (BABIM), Gabexate mesylate, Nafamostat, and the kunitz family serpins Uterine Plasmin-Trypsin Inhibitor (UPTI) and Secretary Leukocyte proteinase inhibitor (SLPI).
Only inhibitors specific for trypsin-like serine proteinases were able to inhibit the ISPs (Fig. 4B and Additional file 2. Table 1). IC50 (concentration of an inhibitor capable of inhibiting the enzyme activity by 50%) values were obtained by plotting inhibition data, which were extrapolated into Cheng and Prusoff's equation to derive the dissociation constant (Ki).
Chromogenic assays were carried out using the p-Nitroanilide conjugated peptidic substrates. The reaction conditions used were: 4 mM BAPNA (substrate), in 25 mM Tris.Cl (pH 8.0) and 10 mM EDTA reaction buffer, in a total reaction volume of 0.5 mL. The reactions were carried out at room temperature in a glass cuvette (1 cm path length), and scanned at wavelength maxima of 405 nm using a spectrophotometer. 1 Unit of enzyme is defined as enzyme activity sufficient for the breakdown of 1 μM of substrate/ml/min. The affinity of ISP complex with various substrates was characterized by measuring enzyme activity at differing substrate concentrations and plotting enzyme activity [V] vs. substrate concentration [S]. The Km was calculated using the Michaelis Menton equation (Km = [S] at 1/2 Vmax).
IC50 values were derived by plotting enzyme activity (V) vs. inhibitor concentration [I]. Dissociation constants (Ki) values for different inhibitors were determined by using the Cheng and Prusoff equation (Ki = IC50/1 + [S]/Km).

T1 sequence (Q924N9 27-274): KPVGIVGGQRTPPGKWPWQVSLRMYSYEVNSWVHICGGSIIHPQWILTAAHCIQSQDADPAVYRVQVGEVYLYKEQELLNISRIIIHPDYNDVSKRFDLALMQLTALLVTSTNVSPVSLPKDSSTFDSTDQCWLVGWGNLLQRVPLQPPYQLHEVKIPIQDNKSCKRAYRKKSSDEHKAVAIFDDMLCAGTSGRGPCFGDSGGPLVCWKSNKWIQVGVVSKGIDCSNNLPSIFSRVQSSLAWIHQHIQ
T1 sequence (Q99MS4 18-279): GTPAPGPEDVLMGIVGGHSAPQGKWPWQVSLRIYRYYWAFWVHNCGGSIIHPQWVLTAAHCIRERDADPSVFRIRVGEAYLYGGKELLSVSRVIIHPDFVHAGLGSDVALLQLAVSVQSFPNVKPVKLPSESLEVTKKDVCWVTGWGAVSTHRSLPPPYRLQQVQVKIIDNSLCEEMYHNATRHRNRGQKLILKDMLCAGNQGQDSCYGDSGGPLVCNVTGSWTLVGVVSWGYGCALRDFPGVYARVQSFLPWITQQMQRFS

B1: TSI: Trypsin Soybean Inhibitor, obtained from Sigma Aldrich (protein, UniProt P01070 25-205, looked up)
Trypsin inhibitor A: DFVLDNEGNPLENGGTYYILSDITAFGGIRAAPTGNERCPLTVVQSRNELDKGIGTIISSPYRIRFIAEGHPLSLKFDSFAVIMLCVGIPTEWSVVEDLPEGPAVKIGENKDAMDGWFRLERVSDDEFNNYKLVFCPQQAEDDKCGDIGISIDHDDGTRRLVVSKNKPLVVQFQKLDKESL
- IC50 (4 mM BAPNA substrate, 25 mM Tris.Cl pH 8.0, room temperature, read-out: IC50%): 8 µM
- Affinity for ISP enzyme (Fig. 4B, compared to Benzamidine): relatively high affinity
- Influence on ISP activity (general trypsin inhibitors): inhibitory influence
